Columns and labels:
[1] = target: peptide aa 302-316 of HIV-1MN gp120 (HIV-1 strain MN); assay: ELISA on coated peptide (250 ng/well); 500ng MIgG
[2] = target: peptide aa 312-326 of HIV-1MN gp120 (HIV-1 strain MN); assay: ELISA on coated peptide (250 ng/well); 500ng MIgG
[3] = target: peptide aa 322-336 of HIV-1MN gp120 (HIV-1 strain MN); assay: ELISA on coated peptide (250 ng/well); 500ng MIgG
[4] = target: HIV-1 RF gp120 (HIV-1 strain RF) (UniProt P04579); assay: cell-based or functional assay
[5] = target: native HIV-1IIIB gp120 (HIV-1 strain IIIB) (UniProt P04578); assay: cell-based or functional assay
[6] = target: native HIV-1MN gp120 (HIV-1 strain MN) (UniProt P05877); assay: cell-based or functional assay
[7] = target: peptide aa 302-316 of HIV-1MN gp120 (HIV-1 strain MN); assay: ELISA on coated peptide (250 ng/well); 19.0ng antibody
[8] = target: peptide aa 312-326 of HIV-1MN gp120 (HIV-1 strain MN); assay: as above
[9] = target: peptide aa 322-336 of HIV-1MN gp120 (HIV-1 strain MN); assay: as above
[10] = target: peptide aa 302-316 of HIV-1MN gp120 (HIV-1 strain MN); assay: ELISA on coated peptide (250 ng/well); 4.75ng antibody
[11] = target: peptide aa 312-326 of HIV-1MN gp120 (HIV-1 strain MN); assay: as above
[12] = target: peptide aa 322-336 of HIV-1MN gp120 (HIV-1 strain MN); assay: as above
[13] = target: peptide aa 302-316 of HIV-1MN gp120 (HIV-1 strain MN); assay: ELISA on coated peptide (250 ng/well); 9.50ng antibody
[14] = target: peptide aa 312-326 of HIV-1MN gp120 (HIV-1 strain MN); assay: as above
[15] = target: peptide aa 322-336 of HIV-1MN gp120 (HIV-1 strain MN); assay: as above
[16] = target: native HIV-1MN gp120 (HIV-1 strain MN) (UniProt P05877); assay: radioimmunoassay of hybridoma supernatant on HIV-1MN-infected against uninfected H9 cells
[17] = target: native HIV-1MN gp120 (HIV-1 strain MN) (UniProt P05877); assay: ELISA of hybridoma supernatant on membranes of HIV-1MN-infected against uninfected H9 cells

UniProt P04579, sequence (P04579 32-519 limits assumed): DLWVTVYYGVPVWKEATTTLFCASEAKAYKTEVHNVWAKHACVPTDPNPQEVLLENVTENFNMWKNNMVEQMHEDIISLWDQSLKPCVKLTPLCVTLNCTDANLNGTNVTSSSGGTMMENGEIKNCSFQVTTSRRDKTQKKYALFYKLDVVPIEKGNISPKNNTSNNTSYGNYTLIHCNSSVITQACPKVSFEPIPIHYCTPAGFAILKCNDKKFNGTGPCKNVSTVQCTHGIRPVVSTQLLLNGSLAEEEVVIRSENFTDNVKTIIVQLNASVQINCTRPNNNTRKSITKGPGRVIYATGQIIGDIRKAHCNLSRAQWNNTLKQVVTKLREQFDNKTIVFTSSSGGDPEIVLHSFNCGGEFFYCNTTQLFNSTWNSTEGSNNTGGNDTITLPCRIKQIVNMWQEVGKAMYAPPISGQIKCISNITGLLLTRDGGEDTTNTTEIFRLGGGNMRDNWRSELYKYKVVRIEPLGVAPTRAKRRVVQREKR

mouse IgG (antibody)
Optical density at 650nm [1]: 0.049 OD 650nm
Optical density at 650nm [2]: 0.043 OD 650nm
Optical density at 650nm [3]: 0.042 OD 650nm

monoclonal antibody NM-01
ID50, inhibition of live RF virus, RT assay [4]: 0.05 µg/mL
ID50, inhibition of syncytium formation by RF-infected cells [4]: 4 µg/mL
percent inhibition of syncytium formation by RF-infected cells at 25 µg antibody [4]: 59%
ID50, inhibition of syncytium formation by IIIB-infected H9 cells with C8166 cells [5]: 3 µg/mL
ID50, neutralization of live IIIB isolate, MT-2 assay [5]: 0.1 µg/mL
ID50, neutralization of live IIIB virus, RT assay [5]: 0.1 µg/mL
ID50, neutralization of live IIIB virus, RT assay (run with F58/H3 and P4/D10) [5]: 0.1 µg/mL
percent inhibition of syncytium formation by IIIB-infected cells at 25 µg antibody [5]: 85%
50% inhibition of viral infectivity (ID50), live MN virus, RT assay [6]: < 1 µg/mL
50% inhibition of viral infectivity (ID50), live MN virus, RT assay (run with F58/H3 and P4/D10) [6]: < 1 µg/mL
ID50, inhibition of syncytium formation by MN-infected H9 cells with C8166 cells [6]: 2 µg/mL
ID50, neutralization of live MN isolate, MT-2 assay [6]: 2 µg/mL
percent inhibition of syncytium formation by MN-infected cells at 25 µg antibody [6]: 85%
Optical density at 650nm [7]: 0.024 OD 650nm
Optical density at 650nm [8]: 1.14 OD 650nm
Optical density at 650nm [9]: 0.03 OD 650nm
Optical density at 650nm [10]: 0.024 OD 650nm
Optical density at 650nm [11]: 0.781 OD 650nm
Optical density at 650nm [12]: 0.03 OD 650nm
Optical density at 650nm [13]: 0.024 OD 650nm
Optical density at 650nm [14]: 0.827 OD 650nm
Optical density at 650nm [15]: 0.028 OD 650nm
Ratio cpm inf/cpm uninf (RIA) [16]: 9.81
ratio infected/uninfected (ELISA, Run 1) [17]: 5.76

— patent EP0662093B1
